B1: full-length Pih1 (natural protein, S. cerevisiae, UniProt P38768 1-344, looked up)
chain: MADFLLRPIKQRHRNEDKYVSVDAADGSVSKIEPIADFVIKTKLLSANGPEKLQDGRKVFINVCHSPLVPKPEVDFNARIVFPLIIQNEWEIPIITSCYRMDHDKKGQECYVWDCCINSDCSRWICDDIQLREILVEWCLESCEIRDSVVLCRDRIAFPKMKKKGAELPALEVLNDELHQDYKAKMHKIIEEEAGDPMSILRGRNDDGDDNNDPDDGTLPPLFPIENKISGAKIEEIDKNEIAHRNLKQAPAPAPAPHEQQEDVPEYEVKMKRFKGAAYKLRILIENKAPNSKPDRFSPSYNFAENILYINGKLSIPLPRDIVVNAADIKIFHIRKERTLYIYI
notes: Pih1, S. cerevisiae, 344 amino acids
B2: GST-Nop58-MC (domain or fragment, S. cerevisiae, UniProt Q12499 158-447, looked up)
chain: KVDVMIIQAIALLDDLDKELNTYAMRCKEWYGWHFPELAKIVTDSVAYARIILTMGIRSKASETDLSEILPEEIEERVKTAAEVSMGTEITQTDLDNINALAEQIVEFAAYREQLSNYLSARMKAIAPNLTQLVGELVGARLIAHSGSLISLAKSPASTIQILGAEKALFRALKTKHDTPKYGLLYHASLVGQATGKNKGKIARVLAAKAAVSLRYDALAEDRDDSGDIGLESRAKVENRLSQLEGRDLRTTPKVVREAKKVEMTEARAYNADADTAKAASDSESDSDDE
notes: Nop58, S. cerevisiae, middle and C-terminal domains (lacks the N-terminal domain and the KKE/D repeat); start worked out from the forward primer NOP58-472-BamHI-F (nucleotide 472 = codon 158); The forward primer adds an ATG before the first Nop58 codon; also called pGST-Nop58-MC; pGEX-Nop58-MC; source: E. coli BL21(DE3) pRIL, purified (glutathione Sepharose 4B); not shown: GST, N-terminal, kept
B3: Pih1(1–230) (domain or fragment, S. cerevisiae, UniProt P38768 1-230, looked up)
chain: MADFLLRPIKQRHRNEDKYVSVDAADGSVSKIEPIADFVIKTKLLSANGPEKLQDGRKVFINVCHSPLVPKPEVDFNARIVFPLIIQNEWEIPIITSCYRMDHDKKGQECYVWDCCINSDCSRWICDDIQLREILVEWCLESCEIRDSVVLCRDRIAFPKMKKKGAELPALEVLNDELHQDYKAKMHKIIEEEAGDPMSILRGRNDDGDDNNDPDDGTLPPLFPIENKIS
notes: Pih1, S. cerevisiae, N-terminal domain, residues 1-230 of 344; also called N-terminal domain of Pih1
B4: GST-Nop58-NM (domain or fragment, S. cerevisiae, UniProt Q12499 1-284, looked up)
chain: MAYVLTETSAGYALLKASDKKIYKSSSLIQDLDSSDKVLKEFKIAAFSKFNSAANALEEANSIIEGKVSSQLEKLLEEIKKDKKSTLIVSETKLANAINKLGLNFNVVSDAVTLDIYRAIKEYLPELLPGMSDNDLSKMSLGLAHSIGRHKLKFSADKVDVMIIQAIALLDDLDKELNTYAMRCKEWYGWHFPELAKIVTDSVAYARIILTMGIRSKASETDLSEILPEEIEERVKTAAEVSMGTEITQTDLDNINALAEQIVEFAAYREQLSNYLSARMKAIA
notes: Nop58, S. cerevisiae, N-terminal and middle domains (lacks the C-terminal domain); end worked out from the reverse primer NOP58-852-XhoI-R (nucleotide 852 = codon 284); also called pGST-Nop58-NM; pGEX-Nop58-NM; source: E. coli BL21(DE3) pRIL, purified (glutathione Sepharose 4B); not shown: GST, N-terminal, kept

What all share (conditions): both partners purified
The target of one assay is T1, GST-Nop58-447 (S. cerevisiae, UniProt Q12499 1-447).
T1 construct: Cloned in pGEX-6P-1 (BamHI-XhoI); source: E. coli BL21(DE3) pRIL, purified (glutathione Sepharose 4B); not shown: GST, N-terminal, kept
T1 sequence (looked up): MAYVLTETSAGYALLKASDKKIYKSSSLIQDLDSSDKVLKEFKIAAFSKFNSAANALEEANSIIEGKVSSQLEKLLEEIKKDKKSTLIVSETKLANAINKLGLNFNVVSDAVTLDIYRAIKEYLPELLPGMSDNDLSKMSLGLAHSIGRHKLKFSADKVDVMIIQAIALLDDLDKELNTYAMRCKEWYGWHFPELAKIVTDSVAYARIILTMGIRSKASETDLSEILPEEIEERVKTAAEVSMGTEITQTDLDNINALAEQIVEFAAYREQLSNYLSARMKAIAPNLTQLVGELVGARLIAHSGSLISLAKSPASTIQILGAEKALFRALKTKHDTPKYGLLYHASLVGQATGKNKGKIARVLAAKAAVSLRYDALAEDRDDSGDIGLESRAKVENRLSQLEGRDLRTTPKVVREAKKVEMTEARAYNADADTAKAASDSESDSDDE
The assay is described as follows: pull-down; GST-Nop58 variants immobilised on glutathione Sepharose 4B, incubated with Pih1 or Pih1(1–230) 40 min at 30°C in GST lysis buffer (1×PBS, 0.1% NP40, 10% glycerol, 1 mM DTT); washes with 0.5 M NaCl; Ponceau S and Western blot. (A western blot detects proteins with antibodies after separation by electrophoresis.)

The assay “full-length Pih1” deals with B1. The description is as above.
In the assay “GST-Nop58-MC” the target is B2. The assay is described as above.
The target of the assay “GST-Nop58-NM” is B4. Described as above.
The next assay concerns the target T2, Rvb1/Rvb2 complex (S. cerevisiae, UniProt Q03940 1-463; Q12464 1-471).
T2 construct: Rvb1, S. cerevisiae; Rvb2, S. cerevisiae, untagged; also called Rvb1/2; preformed Rvb1/2; source: E. coli BL21(DE3) pRIL, co-expressed (pCOLADuet-1), purified (Ni-NTA, TEV protease, Superdex 200); not shown: His6 (HV-tag, with TEV site), N-terminal, cleaved
As to the kind of experiment: pull-down; GST-Nop58-C on MagneGST glutathione particles incubated with 0.1 μM preformed Rvb1/2 or R2TP complex at 4°C for 16 h; washed with buffer H with 0.1 M KCl at 23°C; Western blot.

For assay [1], the target named is T3, R2TP complex (recombinant, preformed) (S. cerevisiae, UniProt Q03940 1-463; Q12464 1-471; P25638 1-111; P38768 1-344).
T3 construct: Rvb1, S. cerevisiae; Rvb2, S. cerevisiae, untagged; Tah1, S. cerevisiae; Pih1, S. cerevisiae, untagged; also called preformed R2TP complex purified from E. coli; source: preformed complex purified from E. coli; not shown: His6 (HV-tag, with TEV site), N-terminal, cleaved; copies: + + +
T3 sequence (Q03940 whole entry, chain 1 of 3): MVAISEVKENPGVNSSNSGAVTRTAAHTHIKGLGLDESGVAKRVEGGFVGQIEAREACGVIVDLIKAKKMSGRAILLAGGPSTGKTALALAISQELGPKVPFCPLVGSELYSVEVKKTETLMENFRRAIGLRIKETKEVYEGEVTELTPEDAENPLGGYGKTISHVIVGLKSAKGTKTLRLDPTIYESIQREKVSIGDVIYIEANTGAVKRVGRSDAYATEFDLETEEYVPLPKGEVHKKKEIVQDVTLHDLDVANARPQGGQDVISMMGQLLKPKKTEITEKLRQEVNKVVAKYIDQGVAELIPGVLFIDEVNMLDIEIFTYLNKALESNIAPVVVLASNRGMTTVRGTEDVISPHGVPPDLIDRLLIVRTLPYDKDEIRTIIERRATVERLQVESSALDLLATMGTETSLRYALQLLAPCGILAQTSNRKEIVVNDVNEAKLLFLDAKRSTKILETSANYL
T3 sequence (Q12464 whole entry, chain 2 of 3): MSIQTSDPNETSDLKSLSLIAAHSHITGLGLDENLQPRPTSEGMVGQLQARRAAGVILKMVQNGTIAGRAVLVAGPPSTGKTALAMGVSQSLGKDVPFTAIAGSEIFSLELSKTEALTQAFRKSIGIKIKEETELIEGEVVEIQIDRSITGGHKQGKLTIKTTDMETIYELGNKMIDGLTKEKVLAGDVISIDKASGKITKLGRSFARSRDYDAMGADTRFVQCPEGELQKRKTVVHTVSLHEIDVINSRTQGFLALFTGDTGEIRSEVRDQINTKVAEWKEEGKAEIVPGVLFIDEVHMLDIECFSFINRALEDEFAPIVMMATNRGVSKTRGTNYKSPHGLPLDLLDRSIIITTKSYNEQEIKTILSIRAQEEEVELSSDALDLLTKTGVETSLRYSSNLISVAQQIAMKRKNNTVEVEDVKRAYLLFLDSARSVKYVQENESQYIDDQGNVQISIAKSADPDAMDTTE
T3 sequence (P25638 whole entry, chain 3 of 3): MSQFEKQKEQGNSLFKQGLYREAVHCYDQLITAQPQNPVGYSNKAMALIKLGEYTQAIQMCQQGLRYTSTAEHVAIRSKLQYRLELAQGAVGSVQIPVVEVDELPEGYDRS
The assay is described as above.

The assay “Pih1(1–230)” has as its target B3. The assay is described as follows: pull-down; GST-Nop58 variants immobilised on glutathione Sepharose 4B, incubated with Pih1 or Pih1(1–230) 40 min at 30°C in GST lysis buffer (1×PBS, 0.1% NP40, 10% glycerol, 1 mM DTT); washes with 0.5 M NaCl; Ponceau S and Western blot.

T2 sequence (Q03940 whole entry, chain 1 of 2): as the sequence (Q03940 whole entry, chain 1 of 3) above
T2 sequence (Q12464 whole entry, chain 2 of 2): as the sequence (Q12464 whole entry, chain 2 of 3) above

On to B1, for which the binding result in the assay with GST-Nop58-447 was “binds”.

For B2, the binding result with full-length Pih1 was “binds”.

Turning to B3, the binding result with GST-Nop58-447, in the assay with GST-Nop58-MC and with GST-Nop58-NM was “binds” each time.

Consider B4, for which, in the assay with full-length Pih1, the binding result is on record as “binds”.

B5: GST-Nop58-C (domain or fragment, S. cerevisiae, UniProt Q12499 285-447, looked up)
chain: PNLTQLVGELVGARLIAHSGSLISLAKSPASTIQILGAEKALFRALKTKHDTPKYGLLYHASLVGQATGKNKGKIARVLAAKAAVSLRYDALAEDRDDSGDIGLESRAKVENRLSQLEGRDLRTTPKVVREAKKVEMTEARAYNADADTAKAASDSESDSDDE
notes: also called pGST-Nop58-C; pGEX-Nop58-C; source: E. coli BL21(DE3) pRIL, purified (glutathione Sepharose 4B; MagneGST Glutathione Particles for the reconstitution with Rvb1/2 or R2TP); not shown: GST, N-terminal, kept
As for B5, the binding result (in the assay with Rvb1/Rvb2 complex; in assay [1]; in the assay with full-length Pih1; with Pih1(1–230)) was “binds” throughout.

For the origin of these results see PMC4165372, “Nutritional status modulates box C/D snoRNP biogenesis by regulated subcellular relocalization of the R2TP complex” (Genome Biology, 2014).
